Experimental data taken from US10577406B2, “FKBP-L polypeptides and uses in angiogenesis-mediated disorders” (ALMAC DISCOVERY LIMITED, priority 2006, dated 2020).

B1: full length recombinant FKBP-L: recombinant full length his-tagged FKBP-L protein (SEQ ID NO: 1) expressed in BL21 (DE3) (protein, listed as Homo sapiens)
chain: MRGSHHHHHHGMASMTGGQQMGRDLYDDDDKDRWGSMETPPVNTIGEKDTSQPQQEWEKNLRENLDSVIQIRQQPRDPPTETLELEVSPDPASQILEHTQGAEKLVAELEGDSHKSHGSTSQMPEALQASDLWYCPDGSFVKKIVIRGHGLDKPKLGSCCRVLALGFPFGSGPPEGWTELTMGVGPWREETWGELIEKCLESMCQGEEAELQLPGHTGPPVGLTLASFTQGRDSWELETSEKEALAREERARGTELFRAGNPEGAARCYGRALRLLLTLPPPGPPERTVLHANLAACQLLLGQPQLAAQSCDRVLEREPGHLKALYRRGVAQAALGNLEKATADLKKVLAIDPKNRAAQEELGKVVIQGKNQDAGLAQGLRKMFG
modifications: His tag

Tests used:
[1] = tested on: HMEC-1; type: cell-based, Human
Description: (§1) The in vitro tubule formation assay used in these studies is a modified version of the method described by Ashton et al (1999). In brief, assays were conducted using BD BioCoat™ Matrigel™ Matrix Thin Layer 24-well Multiwell Plates (BD Discovery Labware, Oxford, UK). The Matrigel™ was rehydrated with 500 μl MCDB-131 serum free medium and incubated at 37° C. for 30 minutes. Excess medium was removed and HMEC-1 were seeded at a density of 1×10^5 and the plates incubated at 37° C. under 5% CO2/95% air for 1 hour.
(§2) Increasing concentrations of the recombinant FKBP-L protein (SEQ ID NO: 1) were added to each individual well in triplicate (250-1000 ngml^−1) and the plate was incubated for a further 18 hours. The degree of tubule formation between adjacent HMEC-1 cells was assessed in each well in five fields of view, by counting the number of cell to cell contacts between different HMEC-1 cells in the designated area. An independent investigator assessed each well and the FKBP-L treated wells were compared to sham treated controls.
as §1, with “al.” for “al”, “min.” for “minutes.”, “h. Increasing concentrations of FKBP-L 24mer (SEQ ID NO: 10) and 1-57mer (SEQ ID NO: 6) from 10^−14-10^−6 M were used.” for “hour.”
as §2, with “The” for “Increasing concentrations of the recombinant FKBP-L protein (SEQ ID NO: 1) were added to each individual well in triplicate (250-1000 ngml^−1) and the”, “h.” for “hours.”

[2] = tested on: PC3 (prostate tumor cell line; CD44 +ve); experiment: tumor cell migration, wound closure assay, PC3; type: cell-based; conditions: for effect on tumor cell migration: PC3
Description: In these experiments, the effect of recombinant FKBP-L on tumor cell migration was assessed. The in vitro migration assay used in these studies is a modified version of the method described by Ashton et al (1999) see supra. PC3, MDA231, and HT29 tumor cells were plated into individual chambers on a glass slide and grown to 90% confluence overnight. The medium was removed and the monolayers wounded. The monolayer was re-supplemented with fresh medium and the required volume of His-tagged recombinant FKBP-L protein (SEQ ID NO: 1) was added to give the final concentrations shown. The monolayers were incubated for 24 hours and then fixed in 4% PBS buffered paraformaldehyde.
The extent of “wound” closure was blindly assessed microscopically by an independent investigator and quantified using a calibrated eyepiece graticule (1 mm/100 μm graduation) at 20× magnification (Olympus BX 50). The extent of closure in the FKBP-L treated slides was compared to time matched sham-treated controls and the percent inhibition of wound closure compared to time matched controls calculated.
The in vitro migration assay used in these studies is a modified version of the method described by Ashton et al. (1999) see supra. PC3 (prostate tumor cell line; CD44 positive; CD44 +ve), MDA231 (breast tumor cell line; CD44 +ve), HT29 (Colorectal tumor cell line; CD44 +ve), MCF-7 (breast tumor cell line; CD44 negative; CD44 −ve) and DU145 (prostate tumor cell line; CD44 −ve) were plated into individual chambers on a glass slide and grown to 90% confluence overnight. The medium was removed and the monolayers wounded. […] The monolayers were incubated for 24 h and then fixed in 4% PBS buffered paraformaldehyde.
The extent of “wound” closure was blindly assessed microscopically by an independent investigator and quantified using a calibrated eyepiece graticule (1 mm/100 μm graduation) at 20× magnification (Olympus BX 50). The extent of closure in the FKBP-L treated slides was compared to time matched sham treated controls and the % inhibition of wound closure compared to time matched controls calculated.
PC3 cells were transfected for 72 h with either sicontrol non-targeting siRNA (SCR siRNA) (Dharmacon, Cat #D-001210-01-05) or CD44 targeted siRNA (CD44siRNA) (Dharmacon, Cat #009999). Briefly, 1.2×10^6 PC3 cells were seeded into two P90 dishes and incubated at 37° C. for 24 h. To transfect, 150 μl of the either sicontrol non-targeting siRNA or CD44 targeting siRNA (2 μM) was added to 450 μl of serum free medium (Tube 1). […] The monolayer was fixed after a further 24 h and the extent of wound closure was blindly assessed using a calibrated graticule. Percent inhibition of wound closure in FKBP-L-treated monolayers compared to untreated monolayers was calculated. […]

Row | Molecule | EC50 ([1]; 18 h) | effect on tumor cell migration ([2]; 10^−14-10^−7 M, 24 h) | optimum concentration for inhibition of cell to cell contacts or tubules ([1]; 250-1000 ngml^−1, 18 hours) | efficacy (inhibition of cell to cell contacts) at optimum concentration ([1]; 750 ngml^−1, 18 hours) | EC50 potency, tube formation ([1]; 18 hours) | effect on tumor cell migration ([2]; 24 hours) | effect on migration of CD44 siRNA treated cells ([2]; PC3 transfected with CD44 targeted siRNA, 1500 ng/ml, 24 h) | inhibition of migration (wound closure) compared to untreated monolayers ([2]; PC3 transfected with non-targeting SCR siRNA, 1500 ng/ml, 24 h)
1 | H-QIRQQPRDPPTETLELEVSPDPAS-OH [FKBP-L 24mer] | 0.03 nM | can inhibit | – | – | – | – | – | –
2 | B1 | – | – | 750 ngml^−1 | 80% | 314 ngml^−1 | inhibits tumor cell migration in a dose-dependent manner | no effect | 21.7%
